Assay results from US20260258127A1 (YING MAI DE MEDICAL TECHNOLOGY GUANGDONG, published 2026).

molecular target: T1, CD3 (antigen of the anti-CD3 antibody, coated in the ELISA of Examples 1-3) (Homo sapiens (Human), UniProt P07766 23-126); assay: ELISA, coated antigen, anti-human IgG-HRP; reference wild-type antibody
T1 construct: also called antibody antigen
Experimental: (§1) In the present invention, the activity of each mutant with a point mutation compared to that of its initial antibody is detected by ELISA. Specifically, the 96-well plates were coated with antibody antigen overnight, then blocked with 1% BSA blocking agent (Thermo Fisher) at 37° C. for 2 hours, and washed with PBST for 3 times. The corresponding antibody or the corresponding mutant was added for binding at 37° C. for 1 hour, and then washed with PBST for 3 times. HRP enzyme-linked anti-human IgG was added for binding at 37° C. for 1 hour, and washed with PBST for 3 times. TMB substrate (Solarbio., Inc.) was used to detect absorbance at 450 nm. The effect on mutant binding strength was calculated through EC50 mutation/EC50 wild-type.
According to the above method, the binding activity of anti-CD3 antibody SP34 mutant with mutations at different position shown in Table 1 was detected.

T1 sequence (P07766 23-126 limits assumed, form in doubt): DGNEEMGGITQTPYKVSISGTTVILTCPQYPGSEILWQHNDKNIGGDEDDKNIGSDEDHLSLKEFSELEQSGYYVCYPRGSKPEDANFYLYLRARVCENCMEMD

Binder	Binding strength of mutants (EC50 mutant/EC50 wild-type) [fold]
anti-CD3 antibody mutant VH-Y61C (antibody, V domains shown, Cys point mutant of the humanized anti-CD3 antibody; also called VH-61) VH: EVQLVESGGGLVQPGGSLRLSCAASGFTFSTYAMNWVRQAPGKGLEWVGRIRSKYNNYATCYADSVKDRFTISRDDSKNSLYLQMNSLKTEDTAVYYCARHGNFGNSYVSWFAYWGQGTLVTVSS VL: QTVVTQEPSLTVSPGGTVTLTCRSSTGAVTTSNYANWVQQKPGQAPRGLIGGTNKRAPGVPARFSGSLLGDKAALTLLGAQPEDEAEYFCALWYSNLWVFGGGTKLTVL	5.1
anti-CD3 antibody mutant VH-F104C (antibody, V domains shown, Cys point mutant of the humanized anti-CD3 antibody; also called VH-104) VH: EVQLVESGGGLVQPGGSLRLSCAASGFTFSTYAMNWVRQAPGKGLEWVGRIRSKYNNYATYYADSVKDRFTISRDDSKNSLYLQMNSLKTEDTAVYYCARHGNCGNSYVSWFAYWGQGTLVTVSS VL: QTVVTQEPSLTVSPGGTVTLTCRSSTGAVTTSNYANWVQQKPGQAPRGLIGGTNKRAPGVPARFSGSLLGDKAALTLLGAQPEDEAEYFCALWYSNLWVFGGGTKLTVL	1
anti-CD3 antibody mutant VH-F112C (antibody, V domains shown, Cys point mutant of the humanized anti-CD3 antibody; also called VH-112) VH: EVQLVESGGGLVQPGGSLRLSCAASGFTFSTYAMNWVRQAPGKGLEWVGRIRSKYNNYATYYADSVKDRFTISRDDSKNSLYLQMNSLKTEDTAVYYCARHGNFGNSYVSWCAYWGQGTLVTVSS VL: QTVVTQEPSLTVSPGGTVTLTCRSSTGAVTTSNYANWVQQKPGQAPRGLIGGTNKRAPGVPARFSGSLLGDKAALTLLGAQPEDEAEYFCALWYSNLWVFGGGTKLTVL	1.2
anti-CD3 antibody mutant VH-M34C (antibody, V domains shown, Cys point mutant of the humanized anti-CD3 antibody; also called VH-34) VH: EVQLVESGGGLVQPGGSLRLSCAASGFTFSTYACNWVRQAPGKGLEWVGRIRSKYNNYATYYADSVKDRFTISRDDSKNSLYLQMNSLKTEDTAVYYCARHGNFGNSYVSWFAYWGQGTLVTVSS VL: QTVVTQEPSLTVSPGGTVTLTCRSSTGAVTTSNYANWVQQKPGQAPRGLIGGTNKRAPGVPARFSGSLLGDKAALTLLGAQPEDEAEYFCALWYSNLWVFGGGTKLTVL	1.1
anti-CD3 antibody mutant VL-K55C (antibody, V domains shown, Cys point mutant of the humanized anti-CD3 antibody; also called VL-55) VH: EVQLVESGGGLVQPGGSLRLSCAASGFTFSTYAMNWVRQAPGKGLEWVGRIRSKYNNYATYYADSVKDRFTISRDDSKNSLYLQMNSLKTEDTAVYYCARHGNFGNSYVSWFAYWGQGTLVTVSS VL: QTVVTQEPSLTVSPGGTVTLTCRSSTGAVTTSNYANWVQQKPGQAPRGLIGGTNCRAPGVPARFSGSLLGDKAALTLLGAQPEDEAEYFCALWYSNLWVFGGGTKLTVL	0.9
anti-CD3 antibody mutant VL-Y34C (antibody, V domains shown, Cys point mutant of the humanized anti-CD3 antibody; also called VL-34) VH: EVQLVESGGGLVQPGGSLRLSCAASGFTFSTYAMNWVRQAPGKGLEWVGRIRSKYNNYATYYADSVKDRFTISRDDSKNSLYLQMNSLKTEDTAVYYCARHGNFGNSYVSWFAYWGQGTLVTVSS VL: QTVVTQEPSLTVSPGGTVTLTCRSSTGAVTTSNCANWVQQKPGQAPRGLIGGTNKRAPGVPARFSGSLLGDKAALTLLGAQPEDEAEYFCALWYSNLWVFGGGTKLTVL	1.2
anti-CD3 antibody mutant VL-N54C (antibody, V domains shown, Cys point mutant of the humanized anti-CD3 antibody; also called VL-54) VH: EVQLVESGGGLVQPGGSLRLSCAASGFTFSTYAMNWVRQAPGKGLEWVGRIRSKYNNYATYYADSVKDRFTISRDDSKNSLYLQMNSLKTEDTAVYYCARHGNFGNSYVSWFAYWGQGTLVTVSS VL: QTVVTQEPSLTVSPGGTVTLTCRSSTGAVTTSNYANWVQQKPGQAPRGLIGGTCKRAPGVPARFSGSLLGDKAALTLLGAQPEDEAEYFCALWYSNLWVFGGGTKLTVL	1
anti-CD3 antibody mutant VL-R56C (antibody, V domains shown, Cys point mutant of the humanized anti-CD3 antibody; also called VL-56) VH: EVQLVESGGGLVQPGGSLRLSCAASGFTFSTYAMNWVRQAPGKGLEWVGRIRSKYNNYATYYADSVKDRFTISRDDSKNSLYLQMNSLKTEDTAVYYCARHGNFGNSYVSWFAYWGQGTLVTVSS VL: QTVVTQEPSLTVSPGGTVTLTCRSSTGAVTTSNYANWVQQKPGQAPRGLIGGTNKCAPGVPARFSGSLLGDKAALTLLGAQPEDEAEYFCALWYSNLWVFGGGTKLTVL	1.5
anti-CD3 antibody mutant VL-N96C (antibody, V domains shown, Cys point mutant of the humanized anti-CD3 antibody; also called VL-96) VH: EVQLVESGGGLVQPGGSLRLSCAASGFTFSTYAMNWVRQAPGKGLEWVGRIRSKYNNYATYYADSVKDRFTISRDDSKNSLYLQMNSLKTEDTAVYYCARHGNFGNSYVSWFAYWGQGTLVTVSS VL: QTVVTQEPSLTVSPGGTVTLTCRSSTGAVTTSNYANWVQQKPGQAPRGLIGGTNKRAPGVPARFSGSLLGDKAALTLLGAQPEDEAEYFCALWYSCLWVFGGGTKLTVL	1
anti-CD3 antibody mutant VH-D68C (antibody, V domains shown, Cys point mutant of the humanized anti-CD3 antibody; also called VH-68) VH: EVQLVESGGGLVQPGGSLRLSCAASGFTFSTYAMNWVRQAPGKGLEWVGRIRSKYNNYATYYADSVKCRFTISRDDSKNSLYLQMNSLKTEDTAVYYCARHGNFGNSYVSWFAYWGQGTLVTVSS VL: QTVVTQEPSLTVSPGGTVTLTCRSSTGAVTTSNYANWVQQKPGQAPRGLIGGTNKRAPGVPARFSGSLLGDKAALTLLGAQPEDEAEYFCALWYSNLWVFGGGTKLTVL	2
anti-CD3 antibody mutant VH-S53C (antibody, V domains shown, Cys point mutant of the humanized anti-CD3 antibody; also called VH-53) VH: EVQLVESGGGLVQPGGSLRLSCAASGFTFSTYAMNWVRQAPGKGLEWVGRIRCKYNNYATYYADSVKDRFTISRDDSKNSLYLQMNSLKTEDTAVYYCARHGNFGNSYVSWFAYWGQGTLVTVSS VL: QTVVTQEPSLTVSPGGTVTLTCRSSTGAVTTSNYANWVQQKPGQAPRGLIGGTNKRAPGVPARFSGSLLGDKAALTLLGAQPEDEAEYFCALWYSNLWVFGGGTKLTVL	1.2
anti-CD3 antibody mutant VL-W93C (antibody, V domains shown, Cys point mutant of the humanized anti-CD3 antibody; also called VL-93) VH: EVQLVESGGGLVQPGGSLRLSCAASGFTFSTYAMNWVRQAPGKGLEWVGRIRSKYNNYATYYADSVKDRFTISRDDSKNSLYLQMNSLKTEDTAVYYCARHGNFGNSYVSWFAYWGQGTLVTVSS VL: QTVVTQEPSLTVSPGGTVTLTCRSSTGAVTTSNYANWVQQKPGQAPRGLIGGTNKRAPGVPARFSGSLLGDKAALTLLGAQPEDEAEYFCALCYSNLWVFGGGTKLTVL	1.8
anti-CD3 antibody mutant VH-W111C (antibody, V domains shown, Cys point mutant of the humanized anti-CD3 antibody; also called VH-111) VH: EVQLVESGGGLVQPGGSLRLSCAASGFTFSTYAMNWVRQAPGKGLEWVGRIRSKYNNYATYYADSVKDRFTISRDDSKNSLYLQMNSLKTEDTAVYYCARHGNFGNSYVSCFAYWGQGTLVTVSS VL: QTVVTQEPSLTVSPGGTVTLTCRSSTGAVTTSNYANWVQQKPGQAPRGLIGGTNKRAPGVPARFSGSLLGDKAALTLLGAQPEDEAEYFCALWYSNLWVFGGGTKLTVL	2
anti-CD3 antibody mutant VL-Y94C (antibody, V domains shown, Cys point mutant of the humanized anti-CD3 antibody; also called VL-94) VH: EVQLVESGGGLVQPGGSLRLSCAASGFTFSTYAMNWVRQAPGKGLEWVGRIRSKYNNYATYYADSVKDRFTISRDDSKNSLYLQMNSLKTEDTAVYYCARHGNFGNSYVSWFAYWGQGTLVTVSS VL: QTVVTQEPSLTVSPGGTVTLTCRSSTGAVTTSNYANWVQQKPGQAPRGLIGGTNKRAPGVPARFSGSLLGDKAALTLLGAQPEDEAEYFCALWCSNLWVFGGGTKLTVL	1

molecular target: T1, CD3 (antigen of the anti-CD3 antibody, …); assay: binding activity of the conjugated mutant compared with the wild-type antibody (ELISA as in Example 1)
Experimental: as §1

Binder	Blocking fold after conjugation (+20K) [fold]
anti-CD3 antibody mutant VH-F104C conjugated with Molecule I (+20K) (antibody, V domains shown, Cys 104 conjugated with Molecule I (+20K), also called VH-104 F104 (+20K)) VH: EVQLVESGGGLVQPGGSLRLSCAASGFTFSTYAMNWVRQAPGKGLEWVGRIRSKYNNYATYYADSVKDRFTISRDDSKNSLYLQMNSLKTEDTAVYYCARHGNCGNSYVSWFAYWGQGTLVTVSS VL: QTVVTQEPSLTVSPGGTVTLTCRSSTGAVTTSNYANWVQQKPGQAPRGLIGGTNKRAPGVPARFSGSLLGDKAALTLLGAQPEDEAEYFCALWYSNLWVFGGGTKLTVL	13
anti-CD3 antibody mutant VH-S53C conjugated with Molecule I (+20K) (antibody, V domains shown, Cys 53 conjugated with Molecule I (+20K), also called VH-53 S53 (+20K)) VH: EVQLVESGGGLVQPGGSLRLSCAASGFTFSTYAMNWVRQAPGKGLEWVGRIRCKYNNYATYYADSVKDRFTISRDDSKNSLYLQMNSLKTEDTAVYYCARHGNFGNSYVSWFAYWGQGTLVTVSS VL: QTVVTQEPSLTVSPGGTVTLTCRSSTGAVTTSNYANWVQQKPGQAPRGLIGGTNKRAPGVPARFSGSLLGDKAALTLLGAQPEDEAEYFCALWYSNLWVFGGGTKLTVL	3
anti-CD3 antibody mutant VH-D68C conjugated with Molecule I (+20K) (antibody, V domains shown, Cys 68 conjugated with Molecule I (+20K), also called VH-68 D68 (+20K)) VH: EVQLVESGGGLVQPGGSLRLSCAASGFTFSTYAMNWVRQAPGKGLEWVGRIRSKYNNYATYYADSVKCRFTISRDDSKNSLYLQMNSLKTEDTAVYYCARHGNFGNSYVSWFAYWGQGTLVTVSS VL: QTVVTQEPSLTVSPGGTVTLTCRSSTGAVTTSNYANWVQQKPGQAPRGLIGGTNKRAPGVPARFSGSLLGDKAALTLLGAQPEDEAEYFCALWYSNLWVFGGGTKLTVL	4
anti-CD3 antibody mutant VH-F112C conjugated with Molecule I (+20K) (antibody, V domains shown, Cys 112 conjugated with Molecule I (+20K), also called VH-112 F112 (+20K)) VH: EVQLVESGGGLVQPGGSLRLSCAASGFTFSTYAMNWVRQAPGKGLEWVGRIRSKYNNYATYYADSVKDRFTISRDDSKNSLYLQMNSLKTEDTAVYYCARHGNFGNSYVSWCAYWGQGTLVTVSS VL: QTVVTQEPSLTVSPGGTVTLTCRSSTGAVTTSNYANWVQQKPGQAPRGLIGGTNKRAPGVPARFSGSLLGDKAALTLLGAQPEDEAEYFCALWYSNLWVFGGGTKLTVL	4
anti-CD3 antibody mutant VH-M34C conjugated with Molecule I (+20K) (antibody, V domains shown, Cys 34 conjugated with Molecule I (+20K), also called VH-34 M34 (+20K)) VH: EVQLVESGGGLVQPGGSLRLSCAASGFTFSTYACNWVRQAPGKGLEWVGRIRSKYNNYATYYADSVKDRFTISRDDSKNSLYLQMNSLKTEDTAVYYCARHGNFGNSYVSWFAYWGQGTLVTVSS VL: QTVVTQEPSLTVSPGGTVTLTCRSSTGAVTTSNYANWVQQKPGQAPRGLIGGTNKRAPGVPARFSGSLLGDKAALTLLGAQPEDEAEYFCALWYSNLWVFGGGTKLTVL	5
